Assays:
[1] = target: BxpB (recombinant, 167 residues, His6 tag removed with Factor Xa) (Bacillus anthracis (Sterne strain)) (UniProt S5W424); assay: SEC-MALS
[2] = target: BxpB (recombinant, 167 residues, His6 tag removed with Factor Xa) (Bacillus anthracis (Sterne strain)) (UniProt S5W424); assay: crystal structure

With “BxpB (recombinant, 167 residues, His6 tag removed with Factor Xa) (from UniProt S5W424 1-167) (natural protein)” the stoichiometry N [1] was 3 and the stoichiometry N [2] was 3.

Reference: paper PMC10470788
